Laboratory results as given in the supplement of paper PMC10724198.
± gives the standard deviation of the averaged measurements.

The sequences below were run on Saccharomyces cerevisiae (assay: protein stability index of tFT-peptide fusion (C-terminal peptide) (PSI (0-1 scale)); higher = more stable (slower turnover)). Conditions: genetic background: wild type; temperature: 30 C.
Experimental: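 Multiplexed protein stability (MPS) profiling in S. cerevisiae. Random 12-aa peptides (tFT-X12 library) are fused to the C-terminus of a sfGFP-mCherry tandem fluorescent timer, after mCherry and a GGGS linker. Cells are FACS-sorted into 8 mCherry/sfGFP bins and deep-sequenced. The protein stability index (PSI) is the read-weighted bin average, scaled from 0 (unstable) to 1 (stable). Only peptides with >10 reads are reported; cells were grown at 30 °C in SC-His with glucose.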
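Note: PSI is a weighted mean of sequencing reads over stability bins, variants kept only with over 10 reads, mCherry proximal and sfGFP distal, peptide attached via GGGS linker.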

PHSSPSHRLSLP and LLIYALPQGTHL are within error of each other in protein stability index: 0.722 ± 0.035 for the first, 0.68 ± 0.048 for the second.

WAPPPPYSPFSL and SPRLPAPPPPPQ are within error of each other in protein stability index: 0.704 ± 0.0098 for the first, 0.702 ± 0.075 for the second.

PLSFPALFSPLS and RVYKCNMKNNSK are within error of each other in protein stability index: 0.684 ± 0.034 for the first, 0.661 ± 0.018 for the second.

Compared with FSLHPGTYLVVL, LVCPLGIEGFSM is higher in protein stability index: 0.5913 ± 0.0026 for the first, 0.723 ± 0.034 for the second.

Going from PSRPSPSPHLPL to PLPPCSARPPPR, the protein stability index falls from 0.849 ± 0.011 to 0.7657 ± 0.0042.

GGGGGVWWVGRV and LASSVRSSASVP are within error of each other in protein stability index: 0.678 ± 0.074 for the first, 0.739 ± 0.034 for the second.

First: ICSVHFLFFPLL
Second: EDMRGATGRGAG
The protein stability index of the first is lower: 0.573 ± 0.014 for the first, 0.669 ± 0.028 for the second.

GVGWQSPGVLVL and AYQFLCFSGMIT are within error of each other in protein stability index: 0.605 ± 0.017 for the first, 0.761 ± 0.27 for the second.

Going from APPRSPRSLPPL to SPPPPPLPPSPR, the protein stability index rises from 0.658 ± 0.013 to 0.713 ± 0.0078.

First: GATAGNPEATPS
Second: ELRSAIRAVPFL
The protein stability index of the first is lower: 0.624 ± 0.074 for the first, 0.737 ± 0.028 for the second.

GMTYWFCSFPFF and TPLVLTLLTRRP are within error of each other in protein stability index: 0.686 ± 0.04 for the first, 0.709 ± 0.054 for the second.

Going from KKKKEKNKHNIR to PPPPPTPSTRTS, the protein stability index falls from 0.72 ± 0.009 to 0.667 ± 0.015.

Compared with KEEKRMKLKKLQ, RTAGSARIESAL is higher in protein stability index: 0.537 ± 0.082 for the first, 0.645 ± 0.017 for the second.

Compared with GLCRRLDRQLAN, TQKKQKRKDQQR is lower in protein stability index: 0.6787 ± 0.0026 for the first, 0.654 ± 0.01 for the second.

GGKTRGVRMCGG and PRPGGHLFLVFS are within error of each other in protein stability index: 0.648 ± 0.014 for the first, 0.679 ± 0.033 for the second.

Compared with GRCIQHPYKVNI, GCGGVGGFGGGL is lower in protein stability index: 0.679 ± 0.017 for the first, 0.605 ± 0.047 for the second.

Compared with SPVRSQPALLVV, THTTIQKTNQNE is higher in protein stability index: 0.565 ± 0.0096 for the first, 0.703 ± 0.026 for the second.

First: VKWFRESRMVGA
Second: VPVGSLLVGSVT
The protein stability index of the first is higher: 0.65 ± 0.027 for the first, 0.528 ± 0.012 for the second.

ILLSETEMIDAD and LRGVDSALCGAR are within error of each other in protein stability index: 0.683 ± 0.022 for the first, 0.693 ± 0.082 for the second.

WVGGGGGPSGVV and PPVPPPDLCSAL are within error of each other in protein stability index: 0.733 ± 0.042 for the first, 0.653 ± 0.068 for the second.

First: SVRHPPWDHRPP
Second: CLPSLPPFPASL
The protein stability index of the first is lower: 0.571 ± 0.083 for the first, 0.738 ± 0.064 for the second.

Compared with GSVNGDTVGTQQ, EGRRGVGGAWEG is lower in protein stability index: 0.708 ± 0.013 for the first, 0.6573 ± 0.0037 for the second.

GSFYGAVYVVPV and PPPAPPSPLLSR are within error of each other in protein stability index: 0.669 ± 0.03 for the first, 0.685 ± 0.1 for the second.

First: PHPPPVPAPPPP
Second: LLALVLTYLLYG
The protein stability index of the first is higher: 0.663 ± 0.008 for the first, 0.564 ± 0.03 for the second.

PVFLEFESWCVC and GPGGVGVTSGGK are within error of each other in protein stability index: 0.685 ± 0.044 for the first, 0.679 ± 0.062 for the second.

First: VSLISCGGVYAG
Second: RRPLLSTPAPCS
The protein stability index of the first is lower: 0.688 ± 0.015 for the first, 0.755 ± 0.025 for the second.

LPPLPPLAHHPA and RGCGGGRVAREC are within error of each other in protein stability index: 0.699 ± 0.044 for the first, 0.689 ± 0.051 for the second.

GRSMWFIEFGLG and EVGWMPFYLVGL are within error of each other in protein stability index: 0.7578 ± 0.0057 for the first, 0.67 ± 0.11 for the second.

CAGRVWVGLCGV and RDLLPRWTWIIW are within error of each other in protein stability index: 0.685 ± 0.094 for the first, 0.76 ± 0.11 for the second.

APAPSLPTSGEL and SNCLKHAYTTRT are within error of each other in protein stability index: 0.701 ± 0.092 for the first, 0.6604 ± 0.0056 for the second.

RPSVSNVSEAEE and VGTAVVDRHGVR are within error of each other in protein stability index: 0.6479 ± 0.0037 for the first, 0.603 ± 0.045 for the second.

APPPPPPPPSFP and RASRSPIARPGT are within error of each other in protein stability index: 0.687 ± 0.055 for the first, 0.643 ± 0.018 for the second.

FISVFALWDVFL and AREGARVVPVGR are within error of each other in protein stability index: 0.7 ± 0.01 for the first, 0.717 ± 0.014 for the second.

PRYAEFVGRFEV and SLDQGSSSLFIM are within error of each other in protein stability index: 0.6508 ± 0.0064 for the first, 0.731 ± 0.082 for the second.

Compared with AGLESFFHYSYF, KKNEVIKKNLRK is lower in protein stability index: 0.7487 ± 0.0002 for the first, 0.616 ± 0.063 for the second.

VVCLGGVVLPRV and PSHLHERIRPAR are within error of each other in protein stability index: 0.65788 ± 0.00012 for the first, 0.726 ± 0.16 for the second.

HSSSGTHRIKKT and SNACHTTFGDPI are within error of each other in protein stability index: 0.667 ± 0.052 for the first, 0.719 ± 0.0078 for the second.

SPFEASSPQVLT and CSLGCSLSALDS are within error of each other in protein stability index: 0.644 ± 0.0094 for the first, 0.663 ± 0.025 for the second.

Going from CGSDRINACVRI to RVIVRGREIEIV, the protein stability index falls from 0.727 ± 0.032 to 0.6782 ± 0.0018.

RHGLPPAPILSP and VRCAVVTMDLTL are within error of each other in protein stability index: 0.661 ± 0.038 for the first, 0.691 ± 0.05 for the second.

GSANIDQEGVQY and HCVRVEWVEGRR are within error of each other in protein stability index: 0.781 ± 0.091 for the first, 0.668 ± 0.023 for the second.

SRSGVKKDIRKL and LHPPPLPQAPPT are within error of each other in protein stability index: 0.657 ± 0.059 for the first, 0.684 ± 0.09 for the second.

WNRVPEWTREPL and GRTFPLATAPFL are within error of each other in protein stability index: 0.719 ± 0.022 for the first, 0.687 ± 0.085 for the second.

Going from GQKKARGRGGGM to MCLSYLSIFLSL, the protein stability index falls from 0.737 ± 0.0077 to 0.548 ± 0.065.

RGIRDQRKSKDK and NLPERSRANTLS are within error of each other in protein stability index: 0.663 ± 0.029 for the first, 0.6749 ± 0.0061 for the second.

HIVSRKYNYPCT and RKHMCSYIRVSR are within error of each other in protein stability index: 0.739 ± 0.088 for the first, 0.723 ± 0.085 for the second.

GRQKIESSEAQT and PLVQSSCCRNYY are within error of each other in protein stability index: 0.666 ± 0.022 for the first, 0.7 ± 0.04 for the second.

First: IGATSMSREARY
Second: GVREGCRGGVGA
The protein stability index of the first is higher: 0.7052 ± 0.0017 for the first, 0.625 ± 0.052 for the second.

Compared with ASTPLPTSPPPP, GFSKNCSCVVLC is lower in protein stability index: 0.66 ± 0.036 for the first, 0.559 ± 0.029 for the second.
